From article PMC6487263, “Kinetic and structural analysis of human ALDH9A1” (Bioscience Reports, 2019)

Molecular target: the molecule itself
Assay: crystal structure; three crystal forms (P2(1)2(1)2, P2(1), C2) at 2.5, 2.9 and 2.3 Å; co-crystallised with 50 mM NAD+ with or without 10 mM TMABA, PEG 4000, 0.1 M sodium citrate pH 5.6; apoform seen; tetramer as dimer-of-dimers

B1: human ALDH9A1 (enzyme, UniProt P49189 1-494, looked up)
chain: MSTGTFVVSQPLNYRGGARVEPADASGTEKAFEPATGRVIATFTCSGEKEVNLAVQNAKAAFKIWSQKSGMERCRILLEAARIIREREDEIATMECINNGKSIFEARLDIDISWQCLEYYAGLAASMAGEHIQLPGGSFGYTRREPLGVCVGIGAWNYPFQIASWKSAPALACGNAMVFKPSPFTPVSALLLAEIYSEAGVPPGLFNVVQGGAATGQFLCQHPDVAKVSFTGSVPTGMKIMEMSAKGIKPVTLELGGKSPLIIFSDCDMNNAVKGALMANFLTQGQVCCNGTRVFVQKEILDKFTEEVVKQTQRIKIGDPLLEDTRMGPLINRPHLERVLGFVKVAKEQGAKVLCGGDIYVPEDPKLKDGYYMRPCVLTNCRDDMTCVKEEIFGPVMSILSFDTEAEVLERANDTTFGLAAGVFTRDIQRAHRVVAELQAGTCFINNYNVSPVELPFGGYKKSGFGRENGRVTIEYYSQLKTVCVEMGDVESAF
notes: Human ALDH9A1, a protein of 494 amino acids; the ORF was amplified with gene-specific primers and ligated into pCDFDuet (BamHI, XhoI); Monomer of 55.4 kDa including the His-tag; cloning into the BamHI site of pCDFDuet would place a His6 tag at the N-terminus (surmised); Residues 232-256 are disordered in the crystal structures; also called HsALDH9A1; TMABALDH; source: E. coli (T7 express; …)
  stoichiometry N: 4
